Patent US20190321483A1 (Novartis, published 2019)
Residue numbers refer to the chain shown, from its start.

B1: J3: Anti-cKIT Fab′3 conjugated to Compound (1), DAR 4 (Fab, V domains shown)
VH: QVQLVQSGAEVKKPGSSVKVSCKASGGTFSSYAISWVRQAPGQGLEWMGTIGPFEGQPRYAQKFQGRVTITADESTSTAYMELSSLRSEDTAVYYCARGGYISDFDVWGQGTLVTVSS
VL: DIQMTQSPSSLSASVGDRVTITCRASQSISNYLAWYQQKPGKAPKLLIYDASSLQSGVPSRFSGSGSGTDFTLTISSLQPEDFATYYCQQYYYESITFGQGTKVEIKR
modifications: Compound (1) on native cysteine LC-214C (EU); Compound (1) on native cysteines HC-220C-226C-229C (EU)
B2: J17: Anti-cKIT Fab′2 conjugated to mc-MMAF, DAR 4 (Fab, V domains shown)
VH: QVQLVQSGAEVKKPGSSVKVSCKASGGTFSSHALSWVRQAPGQGLEWMGGIIPSFGTADYAQKFQGRVTITADESTSTAYMELSSLRSEDTAVYYCARGLYDFDYWGQGTLVTVSS
VL: B1 VL with S28D, N31Q, Y32D, T85V, E94L, S95P, I96S
modifications: mc-MMAF on native cysteine LC-214C (EU); mc-MMAF on native cysteines HC-220C-226C-229C (EU)
B3: J1: Anti-cKIT Fab′1 conjugated to Compound (1), DAR 4 (Fab, V domains shown)
VH: B1 VH with T50V, G52F, F54A, Q57A, R59G
VL: B1 VL
modifications: Compound (1) on native cysteine LC-214C (EU); Compound (1) on native cysteines HC-220C-226C-229C (EU)
B4: J14: Anti-cKIT Fab′1 conjugated to mc-MMAF, DAR 4 (Fab, V domains shown)
VH: B1 VH with T50V, G52F, F54A, Q57A, R59G
VL: B1 VL
modifications: mc-MMAF on native cysteine LC-214C (EU); mc-MMAF on native cysteines HC-220C-226C-229C (EU)
B5: J20: Anti-cKIT Fab′3 conjugated to mc-MMAF, DAR 4 (Fab, V domains shown)
VH: B1 VH
VL: B1 VL
modifications: mc-MMAF on native cysteine LC-214C (EU); mc-MMAF on native cysteines HC-220C-226C-229C (EU)
B6: J21: Anti-cKIT Fab′3 conjugated to Compound (5), DAR 4 (Fab, V domains shown)
VH: B1 VH
VL: B1 VL
modifications: Compound (5) on native cysteine LC-214C (EU); Compound (5) on native cysteines HC-220C-226C-229C (EU)
B7: J18: Anti-cKIT Fab′2 conjugated to Compound (5), DAR 4 (Fab, V domains shown)
VH: B2 VH
VL: B1 VL with S28D, N31Q, Y32D, T85V, E94L, S95P, I96S
modifications: Compound (5) on native cysteine LC-214C (EU); Compound (5) on native cysteines HC-220C-226C-229C (EU)
B8: J2: Anti-cKIT Fab′2 conjugated to Compound (1), DAR 4 (Fab, V domains shown)
VH: B2 VH
VL: B1 VL with S28D, N31Q, Y32D, T85V, E94L, S95P, I96S
modifications: Compound (1) on native cysteine LC-214C (EU); Compound (1) on native cysteines HC-220C-226C-229C (EU)
B9: J15: Anti-cKIT Fab′1 conjugated to Compound (5), DAR 4 (Fab, V domains shown)
VH: B1 VH with T50V, G52F, F54A, Q57A, R59G
VL: B1 VL
modifications: Compound (5) on native cysteine LC-214C (EU); Compound (5) on native cysteines HC-220C-226C-229C (EU)
B10: J22: Anti-cKIT Fab′3 conjugated to Compound (2), DAR 4 (Fab, V domains shown)
VH: B1 VH
VL: B1 VL
modifications: Compound (2) on native cysteine LC-214C (EU); Compound (2) on native cysteines HC-220C-226C-229C (EU)
B11: J16: Anti-cKIT Fab′1 conjugated to Compound (2), DAR 4 (Fab, V domains shown)
VH: B1 VH with T50V, G52F, F54A, Q57A, R59G
VL: B1 VL
modifications: Compound (2) on native cysteine LC-214C (EU); Compound (2) on native cysteines HC-220C-226C-229C (EU)
B12: J19: Anti-cKIT Fab′2 conjugated to Compound (2), DAR 4 (Fab, V domains shown)
VH: B2 VH
VL: B1 VL with S28D, N31Q, Y32D, T85V, E94L, S95P, I96S
modifications: Compound (2) on native cysteine LC-214C (EU); Compound (2) on native cysteines HC-220C-226C-229C (EU)
B13: J5: Anti-cKIT Fab′5 conjugated to Compound (1), DAR 4 (Fab, V domains shown)
VH: QVQLVQSGAEVKKPGESLKISCKGSGYSFTNYWIAWVRQMPGKGLEWMGIIYPSNSYTLYSPSFQGQVTISADKSISTAYLQWSSLKASDTAMYYCARVPPGGSISYPAFDHWGQGTLVTVSS
VL: DIELTQPPSVSVSPGQTASITCSGDNIGSIYASWYQQKPGQAPVLVIYRDNKRPSGIPERFSGSNSGNTATLTISGTQAEDEADYYCSVTDMEQHSVFGGGTKLTVLG
modifications: Compound (1) on native cysteine LC-214C (EU); Compound (1) on native cysteines HC-220C-226C-229C (EU)
B14: J4: Anti-cKIT Fab′4 conjugated to Compound (1), DAR 4 (Fab, V domains shown)
VH: QVQLQQSGPGLVKPSQTLSLTCAISGDSVSTNSAAWNWIRQSPSRGLEWLGRIYYRSQWLNDYAVSVKSRITINPDTSKNQFSLQLNSVTPEDTAVYYCARQLTYPYTVYHKALDVWGQGTLVTVSS
VL: DIELTQPPSVSVSPGQTASITCSGDNLGDQYVSWYQQKPGQAPVLVIYDDTDRPSGIPERFSGSNSGNTATLTISGTQAEDEADYYCQSTDSKSVVFGGGTKLTVLG
modifications: Compound (1) on native cysteine LC-214C (EU); Compound (1) on native cysteines HC-220C-226C-229C (EU)

Columns and labels:
[1] = target: Human cKIT on human mobilized peripheral blood hematopoietic stem cells (human, UniProt P10721 26-976); experiment: cell-based or functional assay
[2] = target: Mouse cKIT on C57BL/6J bone marrow cells (mouse, UniProt P05532 25-979); experiment: cell-based or functional assay

| Binder | EC50 (ng/ml), cell viability after 7 days, Human CD34+ cells [1] [ng/mL] | EC50 (ng/ml), cell viability after 7 days, Human CD90+ cells [1] [ng/mL] | EC50 (ng/ml), cell viability after 7 days, Human total nucleated cells [1] [ng/mL] | EC50 (ng/ml), cell viability after 7 days, Mouse CD45+ cells [2] [ng/mL] | EC50 (ng/ml), cell viability after 7 days, Mouse cKIT+ cells [2] [ng/mL] | EC50 (ng/ml), cell viability after 7 days, Mouse total nucleated cells [2] [ng/mL] |
| --- | --- | --- | --- | --- | --- | --- |
| B1 | 8 | 12 | 45 | – | – | – |
| B2 | 16 | 37 | 12 | – | – | – |
| B3 | 11 | 13 | 48 | – | – | – |
| B4 | 10 | 11 | 7 | – | – | – |
| B5 | 25 | 72 | 20 | – | – | – |
| B6 | 88 | 22 | 154 | – | – | – |
| B7 | 11 | 3 | 15 | – | – | – |
| B8 | 11 | 16 | 58 | – | – | – |
| B9 | 5 | 1 | 6 | – | – | – |
| B10 | 10 | 17 | 8 | – | – | – |
| B11 | 7 | 9 | 6 | – | – | – |
| B12 | 16 | 23 | 14 | – | – | – |
| B13 | – | – | – | 210 | 120 | 210 |
| B14 | – | – | – | 3800 | 8 | 3800 |
